Article PMC2100151

Target: Human ASK1 catalytic (kinase) domain, T813A mutant (human) (UniProt Q99683)
Assay: AUC; sedimentation velocity; 13 μM protein in 10 mM HEPES pH 7.4, 120 mM NaCl, 0.25% glycerol, 4°C, 40,000 rpm; c(s) and c(M) distributions (SEDFIT)

Human ASK1 catalytic (kinase) domain, T813A mutant (from UniProt Q99683 659-951) (domain or fragment)
stoichiometry N: 2
